Laboratory results reported in the supplement of paper PMC9942255.
Values joined by “and” are separate entries in the source; they are usually repeats but may differ in a detail not shown here. Equal values may be shown once.

System: Bacillus subtilis DB104 (SP-AmyQ fusion secretion)
Assay: AmyQ secretion efficiency, weighted average sort bin (1 = best secretion, 10 = worst) (bin number (weighted average, 1-10)); higher = lower secretion efficiency
In short: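 Occupied alginate beads were sorted by large-particle flow cytometry into 10 equally populated bins according to green/red fluorescence ratio. Each bead (~65 nL) held fluorescein-starch and about 0.3 cells of a B. subtilis DB104 library expressing mature AmyQ fused to designed signal peptides from the amyE locus, and beads were grown about 13 h at room temperature and stained with nile red before sorting. Bin amplicons were Illumina-sequenced, and the secretion score is the read-frequency-weighted average bin number, normalised to beads per bin, excluding low-abundance sequences.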

| Sequence | AmyQ secretion efficiency |
| --- | --- |
| MKLAKRVSALTPSTTLAIATVLATAKAKEL | 6.28 |
| MKRTWNVCKRALLSVLLVAGSVPFHAEAKKP | 3.1 |
| MKKRLIAPMLLSAASLAFFAMSGSAQFAAY | 6.43 |
| MKKLVLCVSILAVILSGVMLTQLS | 6.44 |
| MHLIRAAGAVCLAVVLIAGCRFNEDQHQAEHENT | 3.89 |
| MKRLCLWFTVFSLFLVLLPGKALGAVD | 3.84 |
| MIAYFGKCRKRRTIMFLGVLFGMQQANHG | 4.01 |
| MKRTWNVCLTALLSVLLVAGSVPFHGEAKKP | 2.79 |
| MKKKQVMLALTAAAGLGLTALHSAPAPKAAPL | 6.78 |
| MKRLTLVCSIVFILEDLFYDLDIGTIPIQDLPVYEASAKTA | 7.06 |
| MSFVMNIIIALVTILMLSVTSLFALQPSAKAAEH | 2.71 |
| MRMLWRSLALCGLALTLAPCWQAAEP | 5.47 |
| MRSYIKVLTMCFLGLILFVPTGLADNS | 1.86 |
| MKLKSKLLLSCLALSTVFVATTIANAPRR | 6.72 |
| MKLWMRKTLVVLFTIVTFGLVSPPAASMADKP | 1.85 |
| MKKRQIAPGLLSAASLAFFAMSGSAQAAAY | 4.58 |
| MSLYTVIASILLSFLSVLSGGHHESKAFPV | 5.37 |
| MKRSISRKITCLLITLLTMGGMIASPASAAGT | 2.01 |
| MKKWIYTYKVLSIAGIGGFSVHAASS | 6.93 |
| MKKTLAAGIIGLLTVSIASPSFAAEK | 2.62 |
| MKRITINIITMFIAAAVIKRRRRKKAEAAEK | 6.55 |
| MQLGKKLSVAVAASFMSLSISLPGVQAAEG | 2.25 |
| MKKKRALTLCPAIVGSLLFFTAPASAHVS | 3.92 |
| MMSTIFAFLTGLMMFGTITAASASPD | 4.92 |
| MKLAKRVSALTPSTTLAITAKDKEL | 6.63 |
| MKKAFLVFLSVVLVTTVFLVKQQESVAQHKQL | 4.12 |

| Sequence | AmyQ secretion efficiency |
| --- | --- |
| MKLKSKLLLMCLALLIVFVGATTIANAPTH | 8.04 |
| MRGKSAVLLSLIMLIAGFLIHFSFQM | 6.42 |
| MTMLRKIIGWILLLCIIPLFAFTVIHSGKEV | 6.94 |
| MSTGILAAGLTASAIVGTTLVVTPAEAATI | 4.73 |
| MTMLRKIIGWILLLCIIKKKAFTVIASGKEV | 7.58 |
| MLCVMMLLFSAIASFPVSAQHKDQ | 5.96 |
| MKKFVAVAALSTTAFGAHASAKEI | 6.74 |
| MKKKRRKCSICCAAVLLAGGAAQAEAV | 6.1 |
| MKKTIMSFVAVAALSTTAFGAHLSAKEI | 2.5 |
| MFNRLFRVCFLAALIMAFTLPNSYYAQKP | 7.48 |
| MKRLLVSLRVWMVFLMPDRKTAAAAVY | 6.21 |
| MKKKLAAGLTASAIVGTTLVVTPAEADDD | 5.01 |
| MNKKYFVLIVCIIFTSALFPTFSSATAAQG | 1.33 |
| MKKKRLFIFSAILTLSIFAPNETFAQTA | 2.43 |
| MKNMSCKLVVSVTLFFSFLTIGPLVHAQNS | 1.05 |
| MKLWMRKTLVVLFTIVTFGLVSPPAAKMADKP | 3.22 |
| MLTKRLLTIYIMLLGLIAWFPGAIQAEEK | 2.08 |
| MKKGIRFLLVSFVLFFALSTGITGVQAAPA | 2.35 |
| MRFTKKKTFLSVLGLAAVFPLTAQAEKA | 3.64 |
| MAIIIAIIAAVIVIAALITFNVINASPG | 9.99 |
| MGMKKKLRKKRASAALGLALVGGGTWAAFN | 5.51 |
| MKKRLIAPMLLSAASLAFFAMSGSTQAAAY | 3.66 |
| MKKRLIGFLVLVPALIEDGITLIEANKK | 5.91 |
| MTKLKMLSMLTVMIASLFIFSSQQLAVQY | 6.53 |
| MLKKKWMVGLLAGCLAAGGFSYNAFITEN | 6.43 |
| MPYLKRVLLLLVTGLFMSLFAVTATRSAQTG | 3.54 |

| Sequence | AmyQ secretion efficiency |
| --- | --- |
| MLCVMMLLFSAIASTPVSAQAKDQ | 5.3 |
| MLCVMMLLFSAIASFPVSAQLKDQ | 6.33 |
| MTKLKMLSMLTVMIASLFIFSSQTLAVQY | 2.28 |
| MKLKSKLFVICLAAAAIFTAAGVSANAEALDF | 7.41 and 6.26 |
| MKKRLIGFLVLVPALIMSGITLIEYNKK | 9.98 |
| MMKKLAAGLTASAIVGTTLVVTPAEAATI | 2.13 |
| MFNLQVMLALTAAAGLGLTALHSAPAAKAAPL | 3.11 |
| MKVPKTMLLSTAAGLLLSLTATSVSAKRK | 5.92 |
| MAIIIAIIAAVIVIAALITFNVPNASPG | 6.07 |
| MLKKKWMVGLLAGCLAAGGFSYNMFATEN | 6.41 |
| MKKWIYVVLVLSIAGIGGFSVHDASS | 7.82 |
| MKKRLIAPMLLSAASLAFFAMSGSSGAAGPSPAAQAAAY | 4.83 |
| MNLRKIKKSSALSLGMLVSAAPVLATSS | 5.42 |
| MLMLWNSLALCGLALTLAPCAQAAEP | 2.76 |
| MPYLKRVLLLLVTGLFMSLFGDTATASAQTG | 1.23 |
| MKVCQKSIVRFLVSLIIGTFVISVPFMANAQSE | 1.52 |
| MRKKRLLTIYIMLLGLIAWFPGAAQAEEK | 3.47 |
| MKLSVKIAGVLTVAAAAMTAKMYVTAKGN | 8.14 |
| MRFTKVVGFLSVLGLAAVAQAEKA | 5.78 |
| MRMLWRSLALCGLALTLAPCFVVTPASAQAAEP | 2.23 |
| MKKKLAAGLTASAIVGTTLVVTPTEAATI | 2.75 |
| MFNRLFRVCFLAALIMAFTLPNSVYVQKP | 6.52 |
| MKVPKTMYQRRQAGLLLSLTATSVSAHYV | 6.61 |
| MRSYIKVLTMCFLGLILFVPTQLADNS | 5.96 |
| MNKLKRLSMLTVMIASVFIFSSSALAAQY | 2.06 |
| MKKWLIIAVSLAIAIVLFMYTKGEKKAAGM | 5.84 |

| Sequence | AmyQ secretion efficiency |
| --- | --- |
| MRIFKKAVFVIMISFLIATVNVNTAHAKKR | 2.09 |
| MKRILLSSALSFGMLISAVPALAAGT | 2.79 |
| MTTWIVLFLVLIAAAISIFVYVSTGSEK | 8.09 |
| MKKKLAAGLTASAIVGTTLVVTPAEPATI | 6.62 |
| MRHKIITFILAVVVIIIIGNMIGGGGGSEETSK | 7.2 |
| MIVSRQTRQRIIVFLSVIQPQPS | 6.7 |
| MHLIRAAGAVCLAVVLIAGCRFNEDQHQPEGENT | 5.35 |
| MRKKKWRVGLLAGCLAAGGFSYNAFATEN | 5.68 |
| MKRLFMKASLVLFAVVFVFAVKGAPAKAAKR | 3.29 |
| MKKKQVMLALTAAAGLGLTALHPGPSAKAAPL | 1.84 |
| MKRIRIPMTLALGAALTIAPLDEEDDDASAEEN | 5.27 |
| MKSKWMSRKRRVAVGFSFTQVMVHAGET | 6.31 |
| MKKRLIGFLVLVPALIMSGITLDEANKK | 4.52 |
| MKWMCSICCAAVLGAAQAEAV | 4.75 |
| MPIKKKVMMCLAVMLVFLMMSFPTLTNSGGFKE | 3.23 |
| MGLGKKLSVAVAASFMSLSISLPGGQAAEG | 1.55 |
| MLTKRLLTIYIMLLGLIFVILSALSAAWFPGAAQAEEK | 4.31 |
| MNLRKILLSSALSLGMLVSAAPFLATSS | 6.67 |
| MLKKIALTLCPAIVGSLLFFTAPASARKR | 6.88 |
| MKNMSCKTNLVVSVTLFFSFLTIGPLAHAQNS | 1.06 |
| MKKLLAAGIIGLLTVEDDEDDSFAAEK | 8.23 |
| MTKRGIQAFAGGIILATAVLAAVFYLTDEDQAAAR | 4.37 |
| MTMLRKIIGWILLLCIIKKRRRRVIASGKEV | 7.19 |
| MPYLKRVLLLLVTGLFMSLFAVTATASHQTG | 1.34 |
| MNLRKILLSSALSLGMLVSAAPVLATSE | 1.92 |
| MRKKKLWISLLFALTLIFTMAFSNMSAQAAGK | 2.97 |

| Sequence | AmyQ secretion efficiency |
| --- | --- |
| MKSKGSIMACLILFSFTTFINTETISAFSN | 4.68 |
| MIKLVLCVSILAVILSGVALTQLS | 7.36 |
| MKRFLIGAGVAAVILSGWFIADHQTHSQEM | 7.62 and 6.01 and 6.59 |
| MGLGKKLSVAVAASFMSLSISLPGTQAAEG | 1.77 |
| MRFTKVVGFLSVLGLAAVFPLTVQAEKA | 3.18 |
| MKRFSTAYLLLGILCSAAVFLIGAPSRALAAEV | 2.35 |
| MGSTSFILWISLLFALTLIFTMAFSNMSAQAAGK | 6.79 |
| MRSYIKVLTMCFLGLILFVPTNLADNS | 3.6 |
| MKKWMALTSGLFLAAAVLLCLMVPQQIQGASS | 4.17 |
| MKVLLSALLLLLFAFEPSFSGKKL | 8.07 |
| MKMKSGMEQAVSVLLLLSRLPVQASITSE | 7.01 |
| MLTKRLLTIYIMLLGLIAWFPGAAQAEDE | 3.66 |
| MKIRKMFMFILLSSALSFGMLISAVPALAAGT | 2.01 |
| MKRKLLSSLAISALSLGLLVSAPTASFADDE | 5.75 |
| MKKSQYFIVFICFFVLFSVHPIALAAADS | 3.9 |
| MGLGKKLSVAVAASFMSLSISLPGKQAAEG | 4.55 |
| MKWMCMICCAAVLLAMIGAAQAEAV | 3.44 |
| MHLIRAAGAVCLAVVLIAGCRFNEDQHQAESENT | 3.48 |
| MLKKIALTLCPAIVGSLLFFTKRKKRKASAHVS | 7.45 |
| MKKSGSCQKTLAVILSGVALTQLS | 4.76 |
| MKKWMAGLFLAAAVLLCLMVPQQKQGASS | 3.94 |
| MPYLKRVLLLLVTGLFMSLFAVTATYSAQTG | 3.91 |
| MTRTGAIIAAVIVIAALITFNVRNASPG | 7.74 |
| MRMLWRSLALCGLALTLAPCTGTAQAAEP | 1.82 |
